Data from paper PMC7142231, “α1-Microglobulin Binds Illuminated Flavins and Has a Protective Effect Against Sublethal Riboflavin-Induced Damage in Retinal Epithelial Cells” (Frontiers in Physiology, 2020).
Blank lines part the entries; values can stand above or below the molecule they belong to.

Tests used:
[1] = molecular target: Cleaved A1M (~22 kDa band formed with illuminated riboflavin or FAD) (human); experiment: SDS-PAGE; 12% SDS-PAGE, samples reduced with 5% β-mercaptoethanol and boiled 1 min (similar results non-reducing); A1M with buffer or 40, 200, 1000 μM riboflavin or FAD, illuminated or in darkness 1 h at RT; Coomassie stain and Western blot
[2] = molecular target: the molecule itself; experiment: as above

- stoichiometry N [1]: 2
Molecule: Cleaved A1M (~22 kDa band formed with illuminated riboflavin or FAD) (domain or fragment)

B1: Recombinant human α1-microglobulin (A1M) with an N-terminal His-tag (natural protein, UniProt P02760 20-203, looked up)
chain: GPVPTPPDNIQVQENFNISRIYGKWYNLAIGSTCPWLKKIMDRMTVSTLVLGEGATEAEISMTSTRWRKGVCEETSGAYEKTDTDGKFLYHKSKWNITMESYVVHTNYDEYAIFLTKKFSRHHGPTITAKLYGRAPQLRETLLQDFRVVAQGVGIPEDSIFTMADRGECVPGEQEPEPILIPRV
notes: human α1-microglobulin (A1M), the lipocalin cut from the AMBP precursor; construct as in Kwasek et al., 2007; also called recombinant A1M; not shown: His-tag, N-terminal, kept
- stoichiometry N [2]: 2
